Source: paper PMC8897262 (Journal of molecular biology, 2021)

Legend:
[1] = biological target: T1, CD99, endogenously expressed on T-ALL cells (Jurkat, KOPT-K1) (human (endogenous in Jurkat and KOPT-K1)) (UniProt P14209)
T1 sequence (chain, O-linked glycosylation): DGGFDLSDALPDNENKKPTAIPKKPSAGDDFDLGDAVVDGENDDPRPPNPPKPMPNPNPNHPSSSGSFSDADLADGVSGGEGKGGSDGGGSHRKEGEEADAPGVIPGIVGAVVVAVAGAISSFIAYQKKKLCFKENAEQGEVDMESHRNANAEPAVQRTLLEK

[2] = biological target: T2, CD99 peptide containing the 10A1 epitope, Ac-GENDDPRPPNPPKPM-amide (human); experiment: crystal structure
T2 chain: Ac-GENDDPRPPNPPKPM-NH2

binding result [2]: binds
B1: 10A1 Fab (Fab, V domains shown)
VH: QVQLQQSGPVLVKPSQTLSLTCAISGDSISSDTTAWSWIRRSPSRGLEWLGWTYYRSKWFNYYAVSVKGRVTINPDTSKNQFSLQLSSVTPEDTAVYYCARGNGNGGMDVWGQGTTVTVSS
VL: SYVLTQPASASVSPGQTARITCSGDALPKQYAYWYQQKPGQAPVLVIFKDSERPSGVPERFSGSSSGTTVTLTISGAQAEDEADYYCQSVDNSGFYQVFGGGTQLTVL
IC50 (nM Fv) of cytotoxicity, Annexin V staining of KOPT-K1 cells after 18 h [1]: > 2000 nM Fv
